From US20220185894A1 (F STAR THERAPEUTICS, published 2022)
“And” between values parts separate entries of the source, which are not always exact repeats. Identical values can stand only once.

Tests used:
[1] = target: T1, human PD-L1 expressed on cells (human, UniProt Q9NZQ7 19-290); assay: cell-based or functional assay
[2] = target: T2, human LAG-3 expressed on cells (human, UniProt P18627 23-525); assay: flow cytometry on HEK cells expressing human LAG-3
T2 construct: also called hLAG-3; DO11.10 hLAG-3
T2 sequence: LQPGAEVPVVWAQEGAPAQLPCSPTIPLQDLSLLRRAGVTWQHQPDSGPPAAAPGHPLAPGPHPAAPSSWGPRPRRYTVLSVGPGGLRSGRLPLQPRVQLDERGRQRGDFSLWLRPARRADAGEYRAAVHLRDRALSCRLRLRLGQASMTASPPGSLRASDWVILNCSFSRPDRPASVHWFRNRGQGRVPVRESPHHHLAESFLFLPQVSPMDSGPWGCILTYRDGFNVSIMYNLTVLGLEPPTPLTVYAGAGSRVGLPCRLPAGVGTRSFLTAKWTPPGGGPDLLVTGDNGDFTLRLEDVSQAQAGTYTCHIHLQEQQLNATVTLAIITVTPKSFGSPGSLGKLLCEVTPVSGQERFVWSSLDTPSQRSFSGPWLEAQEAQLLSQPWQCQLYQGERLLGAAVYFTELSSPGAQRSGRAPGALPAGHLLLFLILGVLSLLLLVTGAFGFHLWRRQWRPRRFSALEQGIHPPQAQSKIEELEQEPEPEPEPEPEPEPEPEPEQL
Method: (§1) The affinity of the mAb² (all containing the LALA mutation) for cell expressed human or cynomolgus LAG-3 was determined using flow cytometry. HEK cells expressing human or cynomolgus LAG-3 grown in DMEM (Life Technologies, 61965-026) containing 10% FBS (Life Technologies, 10270-1-6), 100 μg/ml Hygromycin B (Melford Laboratories Ltd, Z2475), 15 μg/ml Blasticidin (Melford Laboratories Ltd, B1105) and 1 μg/ml Doxycyclin (Sigma, D9891) were detached from tissue culture flasks using cell dissociation buffer (Life Technologies, 13151-014) and seeded in V-bottom 96-well plates (Costar, 3897) at 2×10⁵ cells/well. The plates were centrifuged at 1500 rpm for 3 min at 4° C. to pellet the cells. A dilution series of the mAb² (or control mAb) were incubated with the cells in a 100 μl volume for 1 h at 4° C. The plates were washed and secondary antibody (Anti-human Fc-488, Jackson ImmunoResearch, 109-546-098) was diluted 1:1000 in PBS and 100 μl was added to the cells for 30 min at 4° C. (plates were kept in the dark). The plates were washed and then cells were resuspended in 100 μl PBS containing 1 μg/ml DAPI (Biotium, 40043). The plates were read using Canto II flow cytometer (BD Bioscience). Dead cells were excluded and the fluorescence in the FITC channel (488 nm/530/30) was measured. The data was fit using log (agonist) vs response in GraphPad Prism Software. The plates were read on a BD FACSCanto II cytometer (BD Biosciences) and the data analysed using FlowJo.

[3] = target: T1, human PD-L1 expressed on cells; assay: flow cytometry on HEK cells expressing human PD-L1
Method: as §1, with “HEK cells” for “The affinity of the mAb² (all containing the LALA mutation) for cell expressed human or cynomolgus LAG-3 was determined using flow cytometry. HEK cells”, “or cynomolgus PD-L1 grown in” for “or cynomolgus LAG-3 grown in”, “control mAb) was incubated with” for “control mAb) were incubated with”, “were washed then cells” for “were washed and then cells”

[4] = target: T3, human PD-L1 Fc (R&D Systems, 156-B7) (human, UniProt Q9NZQ7 19-239); assay: SPR, BIAcore T200; mAb2 captured on Protein L, PD-L1 Fc injected
T3 construct: Bought protein; not shown: Fc tag of the bought fusion protein
Method: Protein L (Thermo, 21189) was immobilized on flow cells 1 and 2 of a Series S CM5 chip (GE Healthcare, BR-1005-30) by amine coupling (GE Healthcare, BR-1000-50) to a surface density of 2000 RU by following the manufacturer's instructions for the BIAcore T200 instrument. […] The association time was 3 min and the dissociation time was 6 min. Running buffer was HBS-P (GE Healthcare, BR-1003-68). Both flow cells were regenerated by injecting 10 mM sodium hydroxide (NaOH) at a flow rate of 100 μl/min for 20 seconds. The data were analysed by double referencing against the blank flow cell.
The binding kinetics were fit with a 1:1 Langmuir model to generate binding association (kₐ) and dissociation (kd) rates. Equilibrium binding constants (KD) were calculated by dividing the dissociation rate by the association rate for each sample. Data analysis was performed with BiaEvaluation software version 3.2.

T3 sequence (Q9NZQ7 19-239 limits assumed): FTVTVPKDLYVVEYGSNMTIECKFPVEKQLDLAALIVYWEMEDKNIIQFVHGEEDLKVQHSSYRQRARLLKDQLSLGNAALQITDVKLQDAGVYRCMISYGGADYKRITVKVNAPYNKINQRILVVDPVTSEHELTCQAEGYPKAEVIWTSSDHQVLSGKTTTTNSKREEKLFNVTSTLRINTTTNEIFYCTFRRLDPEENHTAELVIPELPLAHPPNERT
T1 sequence (Q9NZQ7 19-290 limits assumed): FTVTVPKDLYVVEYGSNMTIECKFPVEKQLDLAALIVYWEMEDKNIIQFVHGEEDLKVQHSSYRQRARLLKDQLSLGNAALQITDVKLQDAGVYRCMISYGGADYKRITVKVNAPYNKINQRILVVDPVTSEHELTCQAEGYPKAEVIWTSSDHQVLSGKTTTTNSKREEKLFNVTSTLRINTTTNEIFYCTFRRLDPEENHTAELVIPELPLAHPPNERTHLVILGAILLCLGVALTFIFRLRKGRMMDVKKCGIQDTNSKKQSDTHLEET

- Maximal IL2 release calculated as % ctrl (84G09 + 25F7) [1]: 65.9%
- EC50 [2]: 3.18 nM
- EC50 [3]: 3.19 nM and 3.51 nM
- Kd [4]: 1 nM
- koff [4]: 0.00039 s⁻¹
- kon [4]: 380000 M⁻¹ s⁻¹
B1: anti-human LAG-3/PD-L1 mAb2 FS18-7-9/84G09 with LALA mutation (bispecific antibody, human IgG1, kappa, L234A L235A)
heavy: EVQLVESGGGLVQPGRSLRLSCAASGFTFDDYAMHWVRQTPGKGLEWVSGISWKSNIIGYADSVKGRFTISRDNAKNSLYLQMNSLRAEDTALYYCARDITGSGSYGWFDPWGQGTLVTVSSASTKGPSVFPLAPSSKSTSGGTAALGCLVKDYFPEPVTVSWNSGALTSGVHTFPAVLQSSGLYSLSSVVTVPSSSLGTQTYICNVNHKPSNTKVDKKVEPKSCDKTHTCPPCPAPEAAGGPSVFLFPPKPKDTLMISRTPEVTCVVVDVSHEDPEVKFNWYVDGVEVHNAKTKPREEQYNSTYRVVSVLTVLHQDWLNGKEYKCKVSNKALPAPIEKTISKAKGQPREPQVYTLPPSWDEPWGEDVSLTCLVKGFYPSDIAVEWESNGQPENNYKTTPPVLDSDGSFFLYSKLTVPYDRWVWPDEFSCSVMHEALHNHYTQKSLSLSPG
light: DIQMTQSPSSLSASVGDRVTITCRASQSISSYLNWYQQKPGKAPKPLIYVASSLQSGVPSSFSGSGSGTDFTLTISSLQPEDFATYYCQQSYSNPITFGQGTRLEIKRTVAAPSVFIFPPSDEQLKSGTASVVCLLNNFYPREAKVQWKVDNALQSGNSQESVTEQDSKDSTYSLSSTLTLSKADYEKHKVYACEVTHQGLSSPVTKSFNRGEC
notes: also called FS18-7-09/84G09LALA; FS18-7-9/84G09 LALA
